Measurements taken from US20120189633A1 (KOLLTAN PHARMACEUTICALS, published 2012).

How the values were obtained:
[1] = target: full-length, wild-type human KIT receptor expressed on cells (human, UniProt P10721 26-976); experiment: cell-based or functional assay
[2] = target: T1, recombinant KIT D4/D5 polypeptide (D4/D5 region of human KIT, V308 to H515, with 5xHis tag) (human, UniProt P10721 26-519); experiment: solid phase ELISA, antigen coated on the plate
T1 construct: also called KIT D4/D5 antigen; KIT immunogen
T1 sequence (P10721 other isoform, or with tags, fused parts or gaps): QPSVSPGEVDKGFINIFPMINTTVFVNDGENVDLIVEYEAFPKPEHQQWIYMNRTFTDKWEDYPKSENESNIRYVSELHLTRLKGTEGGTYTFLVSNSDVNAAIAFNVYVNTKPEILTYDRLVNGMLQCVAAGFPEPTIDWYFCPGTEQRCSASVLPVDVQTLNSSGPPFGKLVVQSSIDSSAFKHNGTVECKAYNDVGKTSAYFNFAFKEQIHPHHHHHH
Protocol: The binding activity of antibodies 37M and 37C obtained from mice immunized with a KIT immunogen containing the D4/D5 region of the human KIT extracellular region was characterized by solid phase ELISA. […] The binding affinity of antibody 37C for an antigen containing the D4/D5 region (see FIG. 2A) of human KIT was also tested by solid phase ELISA. The general protocol used for the solid phase ELISA experiments are described below.
Preparation of antibody sample with serial dilution: Dilution buffer (100 μL) was added to columns 1 and 7 of a 96 well plate, and 50 μL of dilution buffer were added to all the remaining wells. The test antibody (100 μL) was added to the first well containing 100 μL dilution buffer, mixed by pipetting, and 50 μL from the first well were removed and added into the second well and mixed. This dilution step was repeated across the row until the dilution step was repeated for a total of six dilutions. This dilution process was repeated for each sample.
ELISA: The plate with the absorbed antigen was removed from the −80° C. freezer and was allowed to thaw at room temperature. The borate buffer was removed by flicking the plate into the sink and blotting the plate dry. Blocking buffer (200 μL) was added to each well and was allowed to incubate at room temperature for one hour. The blocking buffer was removed, again by flicking the plate into the sink. […]

[3] = target: T1, recombinant KIT D4/D5 polypeptide …; experiment: competition solid phase ELISA on KIT D4/D5 antigen; 37C titrated alone, without competitor
Protocol: (§1) Competitive binding assays were carried out with antibody 37M or 37C as described below and using solid phase ELISA as described in Example 2 (Section 6.2). In particular, serial dilutions of the reference antibody (either 37M or 37C) were combined with constant concentrations of a competing antibody (37M in the case of 37C, and 37C in the case of 37M) and incubated in wells of 96-well plates coated with a recombinant KIT polypeptide containing the D4/D5 region depicted in FIG. 2A. Reference antibody binding was then detected through the use of an HRP-conjugated, species-specific secondary antibody. Antibody 37M has a mouse constant region while antibody 37C has a human constant region. Therefore, when antibody 37M was used as a reference antibody and antibody 37C was used as a competing antibody, the reference antibody was detected using an anti-mouse IgG secondary antibody; and when antibody 37C was used as a reference antibody and antibody 37M was used as a competing antibody, the reference antibody was detected using an anti-human IgG secondary antibody. […]
(§2) Eight, 3-fold dilutions of the reference antibody samples were prepared beginning at 20 nM (2×), and combined 1:1 with a 20 nM solution of the competing antibody to yield final 1× values. […] The plates were processed similarly as described above for data collection on a plate reader. […]

[4] = target: T1, recombinant KIT D4/D5 polypeptide …; experiment: competition solid phase ELISA on KIT D4/D5 antigen; 37C titrated with competitor 37M at 10 nM
Protocol: as §1, §2

full-length, wild-type human KIT receptor expressed on cells, sequence (P10721 other isoform, or with tags, fused parts or gaps limits assumed): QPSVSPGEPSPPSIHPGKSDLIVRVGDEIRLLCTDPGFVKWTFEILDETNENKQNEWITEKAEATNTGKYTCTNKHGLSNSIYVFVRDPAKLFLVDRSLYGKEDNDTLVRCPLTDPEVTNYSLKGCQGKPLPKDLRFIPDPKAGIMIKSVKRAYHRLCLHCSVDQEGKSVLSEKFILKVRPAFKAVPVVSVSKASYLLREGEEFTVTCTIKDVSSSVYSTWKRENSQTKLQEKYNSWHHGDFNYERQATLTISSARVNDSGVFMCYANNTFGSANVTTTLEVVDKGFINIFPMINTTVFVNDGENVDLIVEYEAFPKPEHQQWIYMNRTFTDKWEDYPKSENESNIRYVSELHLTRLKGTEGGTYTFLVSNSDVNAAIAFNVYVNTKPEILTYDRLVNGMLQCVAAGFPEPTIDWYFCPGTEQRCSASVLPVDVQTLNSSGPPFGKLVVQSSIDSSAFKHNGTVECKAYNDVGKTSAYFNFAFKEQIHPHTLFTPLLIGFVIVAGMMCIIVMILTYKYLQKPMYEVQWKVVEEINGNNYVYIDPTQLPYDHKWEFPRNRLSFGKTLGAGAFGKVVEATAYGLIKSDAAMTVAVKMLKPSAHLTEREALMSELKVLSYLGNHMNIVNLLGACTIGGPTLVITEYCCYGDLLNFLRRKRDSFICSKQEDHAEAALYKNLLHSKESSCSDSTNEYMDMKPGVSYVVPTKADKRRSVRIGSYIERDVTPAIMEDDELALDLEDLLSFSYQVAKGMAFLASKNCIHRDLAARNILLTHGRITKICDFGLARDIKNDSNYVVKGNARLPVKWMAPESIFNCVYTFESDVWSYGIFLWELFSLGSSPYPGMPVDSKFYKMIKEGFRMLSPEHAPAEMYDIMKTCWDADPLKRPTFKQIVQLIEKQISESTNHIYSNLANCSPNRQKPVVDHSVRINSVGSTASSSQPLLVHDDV

Binder	50% inhibition concentration (IC50), cell-based phospho-KIT assay, unsorted CHO/KIT-WT cells (FIG. 8) [1] [pM]	IC50, cell-based phospho-KIT assay, sorted (high KIT expression) CHO/KIT-WT cells (FIG. 11B) [1] [pM]	EC50 [2] [nM]	EC50 [3] [nM]	EC50 [4] [nM]
antibody 37C (antibody, human IgG1, kappa, V domains shown, also called chimeric antibody 37C) VH: QVQLKQSGAELVRPGASVKLSCKASGYTFTDYYINWVKQRPGQGLEWIARIYPGSGNTYYNEKFKGKATLTAEKSSSTAYMQLSSLTSEDSAVYFCARGVYYFDYWGQGTTLTVSA VL: DIVMTQSQKFMSTSVGDRVSVTCKASQNVRTNVAWYQQKPGQSPKALIYSASYRYSGVPDRFTGSGSGTDFTLTISNVQSEDLADYFCQQYNSYPRTFGGGTKLEIKR	~167	~334	~0.196	0.048	1
antibody 37M (antibody, V domains shown) VH: QVQLKQSGAELVRPGASVKLSCKASGYTFTDYYINWVKQRPGQGLEWIARIYPGSGNTYYNEKFKGKATLTAEKSSSTAYMQLSSLTSEDSAVYFCARGVYYFDYWGQGTTLTVSS VL: DIVMTQSQKFMSTSVGDRVSVTCKASQNVRTNVAWYQQKPGQSPKALIYSASYRYSGVPDRFTGSGSGTDFTLTISNVQSEDLADYFCQQYNSYPRTFGGGTKLEIKR	–	~315	–	–	–
